Assays:
Assay in all cases: cell-based or functional assay
[1] = molecular target: T1, GITR expressed on the effector cell line of the reporter gene assay
[2] = molecular target: T1, GITR expressed on the effector cell …; remark: listed apart in the source
[3] = molecular target: T1, GITR expressed on the effector cell …; remark: listed apart in the source

Row | EC50, GITR functional reporter gene assay (GenScript, NFkB luciferase) [1] | EC50, GITR functional reporter gene assay (luciferase) [3] | Binder | also measured
1 | 1.26 µg/mL | – | chimeric antibody 225H7D12 (human IgG1) (antibody, V domains shown) VH: QVQLQQSGAEVMKPGASVKLSCKTTGYRFTGYWIEWVKQRPGHGLEWIGEILPGSGVSNNNEKFRDKATFTADTSSNTAYIQLSSLTTDDSAIYYCARKASYYTMDYWGQGTSVTVSS VL: QIVLTQSPAIMSASLGERVTMTCTASSSVSSFYFHWYQQKPGSSPKLWIYSISNLASGVPTRFSGSGSGTSYSLTISSMEAEDAATYYCHQYHRSPRTFGGGTKLEIKR | Bottom, GITR functional reporter gene assay [2]: 16800; EC50, GITR functional reporter gene assay [2]: 0.0796 µg/mL; LogEC50, GITR functional reporter gene assay [2]: -1.1; Span, GITR functional reporter gene assay [2]: 37000; Top, GITR functional reporter gene assay [2]: 53800
2 | 1.17 µg/mL | – | humanized antibody 225H7D12 VH1.1 + VL1.2 (antibody, V domains shown) VH: QVQLVQSGAEVKKPGASVKVSCKTTGYRFTGYWIEWVRQAPGQGLEWIGEILPGSGVSNNNEKFRDRATMTADTSISTAYMELSRLRSDDTAVYYCARKASYYTMDYWGQGTLVTVSS VL: DIQMTQSPSSLSASVGDRVTITCTASSSVSSFYFHWYQQKPGKAPKLWIYSISNLASGVPSRFSGSGSGTSYTLTISSLQPEDFATYYCHQYHRSPRTFGGGTKLEIK | –
3 | 1.18 µg/mL | – | humanized antibody 225H7D12 VH1.3 + VL1.2 (antibody, V domains shown) VH: QVQLVQSGAEVKKPGASVKVSCKASGYRFTGYWIEWVKQAPGQGLEWIGEILPGSGVSNNNEKFRDRATMTADTSINTAYMELSRLRSDDTAVYYCARKASYYTMDYWGQGTLVTVSS VL: DIQMTQSPSSLSASVGDRVTITCTASSSVSSFYFHWYQQKPGKAPKLWIYSISNLASGVPSRFSGSGSGTSYTLTISSLQPEDFATYYCHQYHRSPRTFGGGTKLEIK | –
4 | 1.46 µg/mL | – | humanized antibody 225H7D12 VH1.4 + VL1.2 (antibody, V domains shown) VH: QVQLVQSGAEVKKPGASVKVSCKTTGYRFTGYWIEWVKQAPGQGLEWIGEILPGSGVSNNNEKFRDRATFTADTSINTAYMELSRLRSDDTAVYYCARKASYYTMDYWGQGTLVTVSS VL: DIQMTQSPSSLSASVGDRVTITCTASSSVSSFYFHWYQQKPGKAPKLWIYSISNLASGVPSRFSGSGSGTSYTLTISSLQPEDFATYYCHQYHRSPRTFGGGTKLEIK | –
5 | 0.0745 µg/mL | – | humanized antibody 270C5C10 VH1.2 + VL1 (antibody, V domains shown) VH: QVQLVQSGAEVKKPGASVKVSCKASGYTFTDNYMNWVRQAPGQSLEWIGDINPNNGGSRYKEKFKDRATLTVDTSIRTAYMELSRLRSDDTAVYYCANPGSYGFAYWGQGTLVTVSS VL: DVVMTQSPLSLPVTLGQPASISCKSSQSLLDSDGRTYLNWFQQRPGQSPRRLIYLVSQLDSGVPDRFSGSGSGTDFTLKISRVEAEDVGVYYCWQGTHFPWTFGGGTKLEIK | –
6 | ~0.0355 µg/mL | – | humanized antibody 270C5C10 VH1.4 + VL1 (antibody, V domains shown) VH: QVQLVQSGAEVKKPGASVKVSCKASGYTFTDNYMNWARQSPGQSLEWIGDINPNNGGSRYKEKFKDRATLTVDTSIRTAYMELSRLRSDDTAVYYCANPGSYGFAYWGQGTLVTVSS VL: DVVMTQSPLSLPVTLGQPASISCKSSQSLLDSDGRTYLNWFQQRPGQSPRRLIYLVSQLDSGVPDRFSGSGSGTDFTLKISRVEAEDVGVYYCWQGTHFPWTFGGGTKLEIK | –
7 | – | 0.151 µg/mL | anti-GITR mouse monoclonal antibody 223F12C4 (antibody, V domains shown) VH: QVQLQQSGAELVKPGASVKVSCKASGYSFTSYWIHWVKQRPGQGLEWIGRIHPSDGDIDHNEKFKGKATLTVDKSSSTAYMQLTSLTSEDSAVYYCLCYIMDYWGQGTSVTVSS VL: DIQMNQSPSSLSASLGDTIAITCHASQNINVWLSWYQQKPGNIPKLLIYKAAKLQTGVPSRFSGSGSGTGFTLTISSLQPEDIATYYCHQGQDYPLTFGAGTKLELK | –
8 | – | 1.05 µg/mL | anti-GITR mouse monoclonal antibody 134D7B3 (antibody, V domains shown) VH: QVQLQQSGAELVRPGTSVKVSCKASGYAFNNYVIEWVKQRPGQGLEWIGVIYPGNGGSDYNEKFKVKAKLTADKSSSTAYMQLSSLTSDDSAVYFCARFYYFGSSYAMDYWGQGTSVTVSS VL: DIQMTQTTSSLSASLGDRVTISCRASQDISNYLNWYQQKPDGTIKLLIYYTSRLHSGVPSRFSGSGSGTDYSLTITNLEQEDIATYFCQQGNTLPFTFGSGTKLEIK | –

Further lines, the binder ahead of its results:

Row | Binder | EC50, GITR functional reporter gene assay (GenScript, NFkB luciferase) [1] | EC50, GITR functional reporter gene assay (luciferase) [3] | also measured
9 | anti-GITR mouse monoclonal antibody 225H7D12 (antibody, V domains shown) VH: QVQLQQSGAEVMKPGASVKLSCKTTGYRFTGYWIEWVKQRPGHGLEWIGEILPGSGVSNNNEKFRDKATFTADTSSNTAYIQLSSLTTDDSAIYYCARKASYYTMDYWGQGTSVTVSS VL: QIVLTQSPAIMSASLGERVTMTCTASSSVSSFYFHWYQQKPGSSPKLWIYSISNLASGVPTRFSGSGSGTSYSLTISSMEAEDAATYYCHQYHRSPRTFGGGTKLEIK | – | 0.0796 µg/mL | –
10 | chimeric antibody 270C5C10(Ha-L) (human IgG1) (antibody, V domains shown) VH: EVQLQQSGPEVVKPGASVKISCKASGYTFTDNYMNWAKQSQGKSLEWIGDINPNNGGSRYKEKFKDKATLTVDKSSRTAYMELRSLTSEDSAVYYCANPGSYGFAYWGQGTLVTVSA VL: not shown | ~0.0374 µg/mL | – | Bottom, GITR functional reporter gene assay [2]: 18000; EC50, GITR functional reporter gene assay [2]: 0.386 µg/mL; LogEC50, GITR functional reporter gene assay [2]: -1.41; Span, GITR functional reporter gene assay [2]: 31500; Top, GITR functional reporter gene assay [2]: 49500
11 | anti-GITR mouse monoclonal antibody 163H12G7 (antibody, V domains shown) VH: QVQLQQSGAELASPGASVKMSCKASGYTFSTYTVHWVKQRPGQGLEWIGYINPASGYTNYNQKFKDRATLTADRSSTTAYMQLSGLTSEDSAVFYCARWSYWYFDVWGTGTTVTVSS VL: not shown | – | 0.0137 µg/mL | –
12 | anti-GITR mouse monoclonal antibody 45F1F3 (antibody, V domains shown) VH: DVQLQESGPGLVKPSQSLSLTCTVTGYSITIDYAWNWIRQFPGNKLEWMGYISNSGYTSYNPSLKSRISFTRDTSKNQFFLQLNSVTPEDSATYYCTRSGHYDLFDYWGQGTTLTVSS VL: DVVMTQAPLTLSVTIGQPASISCKSSQSLFDRDGKTYLSWLLERPGQSPKRLIYLVSNLDSGVPDRFTGSGSGTDFTLKISRVEAEDLGVYYCWQGTHFPYTFGGGTKVEMK | – | 0.0145 µg/mL | –
13 | humanized antibody 45F1F3 VH1.4 + VL1.1 (antibody, V domains shown) VH: DVQLQESGPGLVKPSQTLSLTCTVTGYSITIDYAWNWIRQPPGKGLEWMGYISNSGYTSYNPSLKSRITFSRDTSKNQFFLKLSSVTAADTAVYYCTRSGHYDLFDYWGQGTTVTVSS VL: DVVMTQSPLSLPVTLGQPASISCKSSQSLFDRDGKTYLSWLLQRPGQSPRRLIYLVSNLDSGVPDRFSGSGSGTDFTLKISRVEAEDVGVYYCWQGTHFPYTFGGGTKVEIK | 1.09 µg/mL | – | –
14 | humanized antibody 45F1F3 VH1.3 + VL1.1 (antibody, V domains shown) VH: QVQLQESGPGLVKPSQTLSLTCTVTGYSITIDYAWNWIRQPPGKGLEWMGYISNSGYTSYNPSLKSRVTISRDTSKNQFFLKLSSVTAADTAVYYCTRSGHYDLFDYWGQGTTVTVSS VL: DVVMTQSPLSLPVTLGQPASISCKSSQSLFDRDGKTYLSWLLQRPGQSPRRLIYLVSNLDSGVPDRFSGSGSGTDFTLKISRVEAEDVGVYYCWQGTHFPYTFGGGTKVEIK | 1.08 µg/mL | – | –
15 | chimeric antibody 45F1F3 (human IgG1) (antibody, V domains shown) VH: DVQLQESGPGLVKPSQSLSLTCTVTGYSITIDYAWNWIRQFPGNKLEWMGYISNSGYTSYNPSLKSRISFTRDTSKNQFFLQLNSVTPEDSATYYCTRSGHYDLFDYWGQGTTLTVSS VL: DVVMTQAPLTLSVTIGQPASISCKSSQSLFDRDGKTYLSWLLERPGQSPKRLIYLVSNLDSGVPDRFTGSGSGTDFTLKISRVEAEDLGVYYCWQGTHFPYTFGGGTKVEMKR | ~1.09 µg/mL | – | Bottom, GITR functional reporter gene assay [2]: 16300; EC50, GITR functional reporter gene assay [2]: 0.0145 µg/mL; LogEC50, GITR functional reporter gene assay [2]: -1.84; Span, GITR functional reporter gene assay [2]: 32000; Top, GITR functional reporter gene assay [2]: 48300

— patent publication US20230064703A1 (NANJING GENSCRIPT BIOTECH, published 2023)
